The record followed here is patent US20240141061A1, “NOVEL ANTIBODY AGAINST CD55 AND USE THEREOF” (SG MEDICAL INC, priority 2021, published 2024).

In test [1] the target is T1, recombinant human CD55 (R&D Systems 2009-CD/CF) (human, UniProt P08174 35-353).
T1 construct: Bought recombinant protein coated on ELISA plates; also called decay-accelerating factor; DAF
T1 sequence (looked up): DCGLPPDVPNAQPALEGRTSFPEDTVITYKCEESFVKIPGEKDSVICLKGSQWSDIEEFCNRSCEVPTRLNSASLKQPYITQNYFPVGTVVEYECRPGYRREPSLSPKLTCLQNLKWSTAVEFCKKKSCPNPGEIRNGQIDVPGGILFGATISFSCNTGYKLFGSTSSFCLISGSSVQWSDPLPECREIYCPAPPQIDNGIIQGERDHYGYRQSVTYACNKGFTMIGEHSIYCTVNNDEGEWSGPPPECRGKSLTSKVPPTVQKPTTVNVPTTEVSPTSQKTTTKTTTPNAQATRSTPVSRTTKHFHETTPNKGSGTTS
Nature of the test: indirect ELISA, recombinant human CD55 coated. On the technique in general: ELISA stands for enzyme-linked immunosorbent assay.

Another test addresses T2, recombinant human CD55 (Homo sapiens, UniProt P08174).
T2 construct: purchased R&D Systems 2009-CD/CF
T2 sequence (P08174 35-353): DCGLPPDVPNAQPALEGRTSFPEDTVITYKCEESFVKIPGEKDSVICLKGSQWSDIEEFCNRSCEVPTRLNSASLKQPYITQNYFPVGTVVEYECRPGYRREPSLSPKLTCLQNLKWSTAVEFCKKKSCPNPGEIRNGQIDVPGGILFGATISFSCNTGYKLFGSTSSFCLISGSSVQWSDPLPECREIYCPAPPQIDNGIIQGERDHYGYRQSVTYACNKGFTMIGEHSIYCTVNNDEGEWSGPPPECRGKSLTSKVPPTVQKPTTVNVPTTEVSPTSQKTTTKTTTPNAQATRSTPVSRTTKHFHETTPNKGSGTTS
Nature of the test: Indirect ELISA, affinity for CD55. The note with it: full-length antibody 0.0001-10 nM on CD55 coated at 1 μg/mL. Type of test: binding. Here is the method: The binding ability of the G4-1H monoclonal antibody prepared in Example 2 for CD55 was investigated by indirect ELISA. For the indirect ELISA, recombinant human CD55 (R&D Systems, USA) diluted to 1 μg/mL in 50 μL of PBS was added to a 96-well immunoplate (Corning, USA) and then adsorbed by keeping at 4° C. overnight. After incubation for 1 hour at room temperature in a buffer containing 3% bovine serum albumin (Millipore, USA), followed by washing with a buffer containing 0.5% Tween 20 (Amresco, USA) three times, 50 μL of the serially diluted antibody (0.0001, 0.0003, 0.001, 0.003, 0.01, 0.03, 0.1, 0.3, 1, 3 and 10 nM) was treated per well. After incubation at room temperature for 2 hours for antibody-antigen binding, the antibody-antigen complex was washed three times with a buffer containing 0.5% Tween 20 (Amresco, USA). After treating with 50 μL of anti-human immunoglobulin Fc-HRP antibody (Jackson Immunoresearch, USA) diluted to 1:3,000 per well, followed by incubation at room temperature for 1 hour and washing three times with a buffer containing 0.5% Tween 20 (Amresco, USA), color development was conducted for 10 minutes by adding 50 μL of 3,3′,5,5′-tetramethylbenzidine (TMB) (ThermoFisher Scientific, USA).
The affinity of the antibodies screened in Example 6 for CD55 was investigated by indirect ELISA. The indirect ELISA was conducted in the same manner as in Example 3.
The affinity of the antibodies prepared in Example 8 for CD55 was investigated by indirect ELISA. The indirect ELISA was conducted in the same manner as in Example 3. […]

B1: 3R-2-1H (antibody, V domains shown)
VH: EVQLVESGGGLVQPGGSLRLSCVARGFTFSDRGMAWVRQAPGKGLEWVSGISSSGRYTYYAPAVKGRTTISRDNSKNTLYLQMNSLRAEDTAVYYCAKNAVAGGWHAAYIDAWGQGTTVTVSS
VL: SYELTQPPSVSVSPGQTASITCSGGGGSYGWYQQKPGQSPVTVIYWNDKRPSGIPERFSGSKSGNTATLTISGTQAMDEADYYCGGWDSSTYAIFGGGTKLTVL
notes: Tested as full-length IgG
For the molecule B1, in test [1], the binding result is given as “binds”.

B2: 10H(L): EP-10H backbone with H100A site replaced with L, VH SEQ ID NO 27, EP-10H light chain (antibody, V domains shown)
VH: EVQLAESGGGLVQPGGSLRLSCAASGFTFSDRGMAWVRQAPGKGLEWVSGISSSGRYTYYAPAVKGRATISRDNSKNTLYLQMNSLRAEDTAVYYCAKNALAGGWHAAYIDAWGQGTTVTVSS
VL: SYELTQPPSVSVSPGQTASITCSGGGGSYGWYQQKPGQSPVTVIYWNDKRPSGIPERFSGSKSGNTATLTISGTQAMDEADYYCGGWDSSTYAIFGGGTKLTVL
With B2, the “affinity for CD55 (indirect ELISA, absorbance at 450 nm)” value (shortened to “affinity for CD55”) in the test with recombinant human CD55 was “lower affinity than EP-10H”.

B3: 10H(F): EP-10H backbone with H100A site replaced with F, VH SEQ ID NO 28, EP-10H light chain (antibody, V domains shown)
VH: EVQLAESGGGLVQPGGSLRLSCAASGFTFSDRGMAWVRQAPGKGLEWVSGISSSGRYTYYAPAVKGRATISRDNSKNTLYLQMNSLRAEDTAVYYCAKNAFAGGWHAAYIDAWGQGTTVTVSS
VL: SYELTQPPSVSVSPGQTASITCSGGGGSYGWYQQKPGQSPVTVIYWNDKRPSGIPERFSGSKSGNTATLTISGTQAMDEADYYCGGWDSSTYAIFGGGTKLTVL
Turning to B3, the “affinity for CD55” value in the test with recombinant human CD55 is reported as “lower affinity than EP-10H”.

B4: EP-1E: anti-CD55 antibody screened from G4-1H random mutation library, VL SEQ ID NO 18, VH SEQ ID NO 19 (antibody, V domains shown)
VH: EVQLVESGGGLVQPGGSLRLSCAASGFTFSDRGMAWVRQAPGKGLEWVSGISSSGRYTYYAPAVKGRATISRDNSKNTLYLQMNSLRAEDTAVYYCAKNAVAGGWHAAYIDAWGQGTTVTVSS
VL: SYELTQPPSVSVSPGQTASITCSGGGGSYGWFQQKPGQSPVTVIYWNNKRPSGIPERFSGSKSGNTATLTISGTQAMDEADYYCGGWDSSTYAIFGGGTKLTVL
modifications: EP-1E_VH; EP-1E_VL
In the case of B4, the “affinity for CD55” value in the test with recombinant human CD55 was “comparable affinity”.

B5: 10H(M): EP-10H backbone with H100A site replaced with M, VH SEQ ID NO 29, EP-10H light chain (antibody, V domains shown)
VH: EVQLAESGGGLVQPGGSLRLSCAASGFTFSDRGMAWVRQAPGKGLEWVSGISSSGRYTYYAPAVKGRATISRDNSKNTLYLQMNSLRAEDTAVYYCAKNAMAGGWHAAYIDAWGQGTTVTVSS
VL: SYELTQPPSVSVSPGQTASITCSGGGGSYGWYQQKPGQSPVTVIYWNDKRPSGIPERFSGSKSGNTATLTISGTQAMDEADYYCGGWDSSTYAIFGGGTKLTVL
For the molecule B5, the “affinity for CD55” value in the test with recombinant human CD55 is on record as “lower affinity than EP-10H”.

B6: EP-1F: anti-CD55 antibody screened from G4-1H random mutation library, VL SEQ ID NO 4, VH SEQ ID NO 20 (antibody, V domains shown)
VH: EVQLAESGGGLVQPGGSLRLSCAASGFTFSDRGMAWVRQAPGKGLEWVSGISSSGRYTYYAPAVKGRATISRDNSKNTLYLQMNSLRAEDTAVYYCAKNAVAGGWHAAYIDAWGQGTTVTVSS
VL: SYELTQPPSVSVSPGQTASITCSGGGGSYGWYQQKPGQSPVTVIYWNDKRPSGIPERFSGSKSGNTATLTISGTQAMDEADYYCGGWDSSTYAIFGGGTKLTVL
modifications: EP-1F_VH; G4-1H_VL
Regarding B6, in the test with recombinant human CD55, the “affinity for CD55” value is recorded as “comparable affinity”.

B7: G4-1H: humanized 4-1H anti-CD55 antibody, VL SEQ ID NO 4, VH SEQ ID NO 5 (antibody, V domains shown)
VH: EVQLVESGGGLVQPGGSLRLSCAASGFTFSDRGMAWVRQAPGKGLEWVSGISSSGRYTYYAPAVKGRATISRDNSKNTLYLQMNSLRAEDTAVYYCAKNAGAGGWHAAYIDAWGQGTTVTVSS
VL: SYELTQPPSVSVSPGQTASITCSGGGGSYGWYQQKPGQSPVTVIYWNDKRPSGIPERFSGSKSGNTATLTISGTQAMDEADYYCGGWDSSTYAIFGGGTKLTVL
modifications: G4-1H_VH; G4-1H_VL
For the molecule B7, the “affinity for CD55” value with recombinant human CD55 is recorded as “lower affinity for CD55 than 4-1H”.

B8: EP-9B: anti-CD55 antibody screened from G4-1H random mutation library, VL SEQ ID NO 4, VH SEQ ID NO 21 (antibody, V domains shown)
VH: EVQLVESGGGLVQPGGSLRLSCAASGFTFSDRGMVWVRQSPGKGLEWVSGISSSGRYTYYAPAVKGRATISRDNSKNTLYLQMNNLRAEDTAVYYCAKNAVAGGWHAAYIDAWGQGTTVTVSS
VL: SYELTQPPSVSVSPGQTASITCSGGGGSYGWYQQKPGQSPVTVIYWNDKRPSGIPERFSGSKSGNTATLTISGTQAMDEADYYCGGWDSSTYAIFGGGTKLTVL
modifications: EP-9B_VH; G4-1H_VL
Consider B8, for which, in the test with recombinant human CD55, the “affinity for CD55” value is listed as “affinity higher than that of 4-1H but lower than those of other antibodies”.

B9: 3R-2-1H: anti-CD55 antibody screened from G4-1H random mutation library, VL SEQ ID NO 4, VH SEQ ID NO 22 (antibody, V domains shown)
VH: EVQLVESGGGLVQPGGSLRLSCVARGFTFSDRGMAWVRQAPGKGLEWVSGISSSGRYTYYAPAVKGRTTISRDNSKNTLYLQMNSLRAEDTAVYYCAKNAVAGGWHAAYIDAWGQGTTVTVSS
VL: SYELTQPPSVSVSPGQTASITCSGGGGSYGWYQQKPGQSPVTVIYWNDKRPSGIPERFSGSKSGNTATLTISGTQAMDEADYYCGGWDSSTYAIFGGGTKLTVL
modifications: 3R-2-1H_VH; G4-1H_VL
For B9, in the test with recombinant human CD55, the “affinity for CD55” value was “comparable affinity”.

B10: EP-1E (antibody, V domains shown)
VH: EVQLVESGGGLVQPGGSLRLSCAASGFTFSDRGMAWVRQAPGKGLEWVSGISSSGRYTYYAPAVKGRATISRDNSKNTLYLQMNSLRAEDTAVYYCAKNAVAGGWHAAYIDAWGQGTTVTVSS
VL: SYELTQPPSVSVSPGQTASITCSGGGGSYGWFQQKPGQSPVTVIYWNNKRPSGIPERFSGSKSGNTATLTISGTQAMDEADYYCGGWDSSTYAIFGGGTKLTVL
notes: Tested as full-length IgG
Regarding B10, the binding result in test [1] is recorded as “binds”.

B11: EP-1F (antibody, V domains shown)
VH: EVQLAESGGGLVQPGGSLRLSCAASGFTFSDRGMAWVRQAPGKGLEWVSGISSSGRYTYYAPAVKGRATISRDNSKNTLYLQMNSLRAEDTAVYYCAKNAVAGGWHAAYIDAWGQGTTVTVSS
VL: SYELTQPPSVSVSPGQTASITCSGGGGSYGWYQQKPGQSPVTVIYWNDKRPSGIPERFSGSKSGNTATLTISGTQAMDEADYYCGGWDSSTYAIFGGGTKLTVL
notes: Tested as full-length IgG
As to B11, the binding result in test [1] is “binds”.

B12: EP-9B (antibody, V domains shown)
VH: EVQLVESGGGLVQPGGSLRLSCAASGFTFSDRGMVWVRQSPGKGLEWVSGISSSGRYTYYAPAVKGRATISRDNSKNTLYLQMNNLRAEDTAVYYCAKNAVAGGWHAAYIDAWGQGTTVTVSS
VL: SYELTQPPSVSVSPGQTASITCSGGGGSYGWYQQKPGQSPVTVIYWNDKRPSGIPERFSGSKSGNTATLTISGTQAMDEADYYCGGWDSSTYAIFGGGTKLTVL
notes: Tested as full-length IgG
B12: in test [1], the binding result is “binds”.
